Among the data in US11193929 are signal in RFV values, retold here.

For assay [1], the target named is 3D5F7 monoclonal antibody, Fab' fragment coupled to alkaline phosphatase. As to the kind of experiment: VIDAS one-step sandwich immunoassay; capture 19C7+B90 on tip, detection 3D5F7+7B9 Fab'-alkaline phosphatase; peptide (50 ng/mL peptide).
Assay [2] has the same target. Description: VIDAS one-step sandwich immunoassay; capture 19C7+B90 on tip, detection 3D5F7+7B9 Fab'-alkaline phosphatase; peptide at (500 ng/mL peptide).
The target is the same in assay [3]. Description: VIDAS one-step sandwich immunoassay; capture 19C7+B90 on tip, detection 3D5F7+7B9 Fab'-alkaline phosphatase; peptide at (4000 ng/mL peptide).
The target is the same in assay [4]. As to the kind of experiment: VIDAS one-step sandwich immunoassay; capture 19C7+B90 on tip, detection 3D5F7+7B9 Fab'-alkaline phosphatase; peptide at (1000 ng/mL peptide).
Assay [5] has the same target. As to the kind of experiment: VIDAS one-step sandwich immunoassay; capture 19C7+B90 on tip, detection 3D5F7+7B9 Fab'-alkaline phosphatase; peptide (100 ng/mL peptide).
Assay [6] shares this target. Description: VIDAS one-step sandwich immunoassay; capture 19C7+B90 on tip, detection 3D5F7+7B9 Fab'-alkaline phosphatase; peptide (200 ng/mL peptide).
Assay [7] shares this target. Description: VIDAS one-step sandwich immunoassay; capture 19C7+B90 on tip, detection 3D5F7+7B9 Fab'-alkaline phosphatase; peptide at (2000 ng/mL peptide).
For assay [8] the target is unchanged. As to the kind of experiment: VIDAS one-step sandwich immunoassay; capture 19C7+B90 on tip, detection 3D5F7+7B9 Fab'-alkaline phosphatase; peptide (20 ng/mL peptide).
The target is the same in assay [9]. As to the kind of experiment: VIDAS one-step sandwich immunoassay; capture 19C7+B90 on tip, detection 3D5F7+7B9 Fab'-alkaline phosphatase; compound at (20 ng/mL peptide).
The target is the same in assay [10]. As to the kind of experiment: VIDAS one-step sandwich immunoassay; capture 19C7+B90 on tip, detection 3D5F7+7B9 Fab'-alkaline phosphatase; compound (5 ng/mL peptide).
Assay [11] shares this target. As to the kind of experiment: VIDAS one-step sandwich immunoassay; capture 19C7+B90 on tip, detection 3D5F7+7B9 Fab'-alkaline phosphatase; peptide at 2 ng/mL.
Assay [12] shares this target. Description: VIDAS one-step sandwich immunoassay; capture 19C7+B90 on tip, detection 3D5F7+7B9 Fab'-alkaline phosphatase; (10 ng/mL peptide).
For assay [13] the target is unchanged. As to the kind of experiment: VIDAS one-step sandwich immunoassay; capture 19C7+B90 on tip, detection 3D5F7+7B9 Fab'-alkaline phosphatase; compound (50 ng/mL peptide).
The target is the same in assay [14]. Description: VIDAS one-step sandwich immunoassay; capture 19C7+B90 on tip, detection 3D5F7+7B9 Fab'-alkaline phosphatase; compound at (1 ng/mL peptide).

Where no end group is shown, it is not given here. [ ]: non-standard residue; d: D form. AEEA = NCCOCCOCC(=O)O

B1: Noncoupled peptide 1 (peptide)
peptide: ATEPHAKKKCAGLGFAELQDL
modifications: (Ado)2 (dimer of 8-amino-3,6-dioxaoctanoic acid) between ATEPHAKKK and C and between C and AGLGFAELQDL; C-terminal amide
Take B1: the signal in RFV in assay [1] was determined as 21 RFV; in assay [2], 1820 RFV; in assay [3], 7540 RFV; in [4], 3800 RFV; in [5], 69 RFV; in assay [6], 356 RFV. Moreover, the signal in RFV in assay [7] was 6140 RFV; in [8] it was 2 RFV.

B2: Compound 3 (Peptide 1 - IgG) (peptide, part only; not given: polyclonal rabbit IgG carrier, part only)
peptide: ATEPHAKKK[AEEA][AEEA]CAGLGFAELQDL-NH2
modifications: not fully specified (some residues); numbers in words are those of the source; also: Cys thioether-coupled to IgG carrier, about 10 peptides per IgG
Take B2: the signal in RFV in assay [9] is 3280 RFV; in [10], 882 RFV; in [11], 360 RFV; in assay [12] it was 1690 RFV; in [13], 6210 RFV; in assay [14], 175 RFV.
